# Measured values taken from patent US20210403579A1 (DELINIA, published 2021).
# Target: T1, Mouse ST2 (mouse, UniProt P14719 27-332, limits assumed)
# T1 construct: also called mouse ST2 protein
# T1 sequence (looked up): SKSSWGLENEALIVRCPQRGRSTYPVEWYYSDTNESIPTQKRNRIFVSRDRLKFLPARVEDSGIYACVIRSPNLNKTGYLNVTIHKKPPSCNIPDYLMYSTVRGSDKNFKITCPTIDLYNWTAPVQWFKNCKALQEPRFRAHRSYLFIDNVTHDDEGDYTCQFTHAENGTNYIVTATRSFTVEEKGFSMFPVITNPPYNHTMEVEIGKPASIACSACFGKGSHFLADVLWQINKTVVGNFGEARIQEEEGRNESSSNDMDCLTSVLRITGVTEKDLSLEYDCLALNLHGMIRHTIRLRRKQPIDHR
# Test: SPR (Carterra), antibody immobilized, ST2 analyte, 1:1
# Procedure: (§1) Binding of the reformatted human ST2 antibodies to the human and mouse ST2 proteins was evaluated by surface plasmon resonance (SPR), using a high throughput antibody screening and characterization platform from Carterra (Salt Lake City, Utah).
Binder,Kd [nM],koff [s⁻¹],kon [M⁻¹ s⁻¹]
"Human ST2 IgG1 Antibody 16 (antibody, V domains shown, IgG1, kappa; also called ST2 Antibody 16) VH: QVQLVQSGAEVKKPGASVKVSCKASGYTFTSHYMHWVRQAPGQGLEWMGIINPSGGSTSYAQKFQGRVTMTRDTSTSTVYMELSSLRSEDTAVYYCARAGIGYLAAHDLYYYYGMDVWGRGTLVTVSS VL: EIVMTQSPATLSVSPGERATLSCRASQSVSSNFAWYQQKPGQAPRLLIYGASTRATGIPARFSGSGSGTEFTLTISSLQSEDFAVYYCQQYYSTPYTFGQGTKVEIKR",315,0.1,320000
"Human ST2 IgG1 Antibody 34 (antibody, V domains shown, IgG1, kappa; also called ST2 Antibody 34) VH: QVQLVQSGAEVKKPGASVKVSCKASGQTFTDYAINWVRQAPGQGLEWMGWMNPNSGNTGYAQKFQGRVTMTRDTSTSTVYMELSSLRSEDTAVYYCARETLEQQLPFDYWGQGTLVTVSS VL: DIQMTQSPSSLSASVGDRVTITCRASQSISSWLAWYQQKPGKAPKLLIYAASTLQSGVPSRFSGSGSGTDFTLTISSLQPEDFATYYCQQYYSTLYTFGQGTKVEIKR",126,0.0019,15000
"Human ST2 IgG1 Antibody 19 (antibody, V domains shown, IgG1, kappa; also called ST2 Antibody 19) VH: EVQLLESGGGLVQPGGSLRLSCAASGFSFSHAWMSWVRQAPGKGLEWVSVIHSGGSTFYADSVKGRFTISRDNSKNTLYLQMNSLRAEDTAVYYCARIGKGGGFDYWGQGTLVTVSS VL: DIQMTQSPSSLSASVGDRVTITCRASQDIGSWLAWYQQKPGKAPKLLIYAASSLQSGVPSRFSGSGSGTDFTLTISSLQPEDFATYYCQQSYSTPPTFGQGTKVEIKR",311,0.11,370000
"Human ST2 IgG1 Antibody 20 (antibody, V domains shown, IgG1, kappa; also called ST2 Antibody 20) VH: EVQLLESGAEVKKPGSSVKVSCKASGGTFSSYAISWVRQAPGQGLEWMGGIIPIFGTANYAQKFQGRVTITADESTSTAYMELSSLRSEDTAVYYCASGFYSNDLYYYYYMDVWGKGTTVTVSS VL: DIQMTQSPSSLSASVGDRVTITCRASQSISSWLAWYQQKPGKAPKLLIYDASNLKTGVPSRFSGSGSGTDFTLTISSLQPEDFATYYCQQTYAIPLTFGGGTKVEIKR",2200,0.17,77000
"Human ST2 IgG1 Antibody 29 (antibody, V domains shown, IgG1, kappa; also called ST2 Antibody 29) VH: QVQLVQSGAEVKKPGASVKVSCKASGGTFTGYFIHWVRQAPGQGLEWMGWMNPNSGNTGYAQKFQGRVTMTRDTSTSTVYMELSSLRSEDTAMYYCAREGQGVVPVDYWGQGTLVTVSS VL: DIQMTQSPSSLSASVGDRVTITCRASQSISSWLAWYQQKPGKAPKLLIYDATNLETGVPSRFSGSGSGTDFTLTISSLQPEDFATYYCLQDYNYPLTFGQSTKVEIKR",751,0.0045,5900
"Human ST2 IgG1 Antibody 21 (antibody, V domains shown, IgG1, kappa; also called ST2 Antibody 21) VH: QVQLVQSGAEVKKPGASVKVSCKASGYTFSNHYMHWVRQAPGQGLEWMGWVNPTSGNTGYAQKFQGRVTMTRDTSTSTVYMELSSLRSEDTAVYYCARDLGVTYFDLWGRGTLVTVSS VL: DIQMTQSPSSLSASVGDRVTITCRASQGISSWLAWYQQKPGKAPKLLIYEASHLETGVPSRFSGSGSGTDFTLTISSLQPEDFATYYCLQDYNYPLTFGGGTKVEIKR",999,0.0085,8500
"Human ST2 IgG1 Antibody 25 (antibody, V domains shown, IgG1, kappa; also called ST2 Antibody 25) VH: QVQLVQSGAEVKKPGSSVKVSCKASGGTFSNYAISWVRQAPGQGLEWMGWISAYNGNTNYAQKFQGRVTMTRDTSTSTVYMELSSLRSEDTAVYYCARSTNALDYWGQGTLVTVSS VL: DIQMTQSPSSLSASVGDRVTITCRASQGIRSNLDWYQQKPGKAPKLLISIVSNLGSGVPSRFSGSGSGTDFTLTISSLQPEDFATYYCLQHNSNPPTFGGGTKVEIKR",322,0.064,200000
"Human ST2 IgG1 Antibody 30 (antibody, V domains shown, IgG1, kappa; also called ST2 Antibody 30) VH: QVQLVQSGAEVKKPGSSVKVSCKASGYTFTTYGITWVRQAPGQGLEWMGGIIPIFGTANYAQKFQGRVTITADESTSTAYMELSSLRSEDTAVYYCAKLSGSSGSWDYYYYYGMDVWGQGTLVTVSS VL: DIVMTQSPLSLPVTPGEPASISCRSSQSLLHSNGYNYLDWYLQKPGQSPQLLIYAASNLQSGVPDRFSGSGSGTDFTLKISRVEAEDVGVYYCMQALQTPITFGQSTRLEIKR",2700,0.13,48000
"Human ST2 IgG1 Antibody 9 (antibody, V domains shown, IgG1, kappa; also called ST2 Antibody 9) VH: EVQLLESGGGLVQPGGSLRLSCAASGFAFSSHWMHWVRQAPGKGLEWVATISSGSHSIHYADSVKGRFTISRDNSKNTLYLQMNSLRAEDTAVYYCAREAGTSYYYYGMDVWGKGTTVTVSS VL: DIQMTQSPSSLSASVGDRVTITCQASQDIRNYLNWYQQKPGKAPKLLIYKASSLESGVPSRFSGSGSGTDFTLTISSLQPEDFATYYCQQSYSTPPTFGGGTKVEIKR",351,0.032,91000

# Target: T2, Human ST2 (human, UniProt Q01638 19-328, limits assumed)
# T2 construct: also called human ST2 protein; Interleukin 1 receptor-like 1
# T2 sequence (looked up): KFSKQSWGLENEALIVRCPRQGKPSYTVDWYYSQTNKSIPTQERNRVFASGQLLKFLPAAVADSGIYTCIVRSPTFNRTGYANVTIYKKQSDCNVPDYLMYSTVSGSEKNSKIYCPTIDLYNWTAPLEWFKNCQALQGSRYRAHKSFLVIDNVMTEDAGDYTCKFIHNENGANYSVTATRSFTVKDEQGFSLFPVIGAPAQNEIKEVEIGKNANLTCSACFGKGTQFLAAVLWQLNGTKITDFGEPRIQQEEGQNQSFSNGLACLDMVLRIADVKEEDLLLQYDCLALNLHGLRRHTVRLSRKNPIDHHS
# Test: SPR (Carterra), antibody immobilized, ST2 analyte
# Procedure: as §1
Binder,Kd [nM],koff [s⁻¹],kon [M⁻¹ s⁻¹]
"Human ST2 IgG1 Antibody 98 (antibody, V domains shown, IgG1; also called ST2 Antibody 98) VH: EVQLLESGGGLVKPGGSLRLSCAASGFTFSSYWMSWVRQAPGKGLEWVSAISGTAINTYYADSVKGRFTISRDDSKNTLYLQMNSLKTEDTAVYYCARVRRDSSGGGAFDIWGQGTMVTVSS VL: DIQMTQSPSSLSASVGDRVTITCRASQGISNNLNWYQQKPGKAPKLLIYAASSLQTGVPSRFSGSGSGTDFTLTISSLQPEDFATYYCQQSYSTPPTFGQGTKVEIKR",95,0.025,270000
"Human ST2 IgG1 Antibody 100 (antibody, V domains shown, IgG1; also called ST2 Antibody 100) VH: EVQLLESGGGLVQPGGSLRLSCAASGFTFSNYAMAWVRQAPGKGLEWVSWISGSGSYIYYADSVKGRFTISRDNSKNTLYLQMNSLRAEDTAVYYCARRGSSWSNFDYWGQGTLVTVSS VL: DIQMTQSPSSLSASVGDRVTITCRASQTISTYLNWYQQKPGKAPKLLIYDASNLETGVPSRFSGSGSGTDFTLTISSLQPEDFATYYCQQSYSTPITFGQGTKVEIKR",342,0.074,220000
"Human ST2 IgG1 Antibody 99 (antibody, V domains shown, IgG1; also called ST2 Antibody 99) VH: EVQLLESGGGLVQPGGSLRLSCAASGFTFSDYYMNWVRQAPGKGLEWVSTISGFGESTFYADSVKGRFTISRDNSKNTLYLQMNSLRAEDTAVYYCARLGAARAFDIWGQGTTVTVSS VL: DIQMTQSPSSLSASVGDRVTITCRASQSIGSWMAWYQQKPGKAPKLLIYAASTLQSGVPSRFSGSGSGTDFTLTISSLQPEDFATYYCQQSYTTPITFGPGTKVDIKR",192,0.089,460000
"Human ST2 IgG1 Antibody 92 (antibody, V domains shown, IgG1; also called ST2 Antibody 92) VH: QVQLVQSGAEVKKPGSSVKVSCKASGGSFSGQAVNWVRQAPGQGLEWMGGFVSLFGTANYAQKFQGRVTITADESTSTAYMELSSLRSEDTAVYYCARDREGLGWYFDLWGRGTLVTVSS VL: not shown",662,0.13,200000
"Human ST2 IgG1 Antibody 93 (antibody, V domains shown, IgG1; also called ST2 Antibody 93) VH: QVQLVQSGAEVKKPGSSVKVSCKASGGTFSTYAISWVRQAPGQGLEWMGGIIPSFNAPSYAQKFQGRVTITADKSTSTAYMELSSLRSEDTAVYYCARVVPAAIVGWYFDLWGRGTLVTVSS VL: DIVMTQSPLSLPVTPGEPASISCRSSQSLLHSNGYNYLDWYLQKPGQSPQLLIYAASTLQTGVPDRFSGSGSGTDFTLKISRVEAEDVGVYYCMQALQTPPTFGQGTKVEIKR",728,0.11,150000
"Human ST2 IgG1 Antibody 95 (antibody, V domains shown, IgG1; also called ST2 Antibody 95) VH: QVQLVQSGAEVKKPGSSVKVSCKASGYTFTSYGISWVRQAPGQGLEWMGGIIPIFGTANYAQKFQGRVTITADESTSTAYMELSSLRSEDTAVYYCARVMARRDGYNFKGGWYFDLWGRGTLVTVSS VL: DIVMTQSPLSLPVTPGEPASISCRSSQSLLHSNGYNYLDWYLQKPGQSPQLLIYAASSLQSGVPDRFSGSGSGTDFTLKISRVEAEDVGVYYCMQALETPPTFGQGTKLEIKR",446,0.0086,19000
"Human ST2 IgG1 Antibody 96 (antibody, V domains shown, IgG1; also called ST2 Antibody 96) VH: QVQLVQSGAEVKKPGSSVKVSCKASGFSFSTYGVAWVRQAPGQGLEWMGGFVPIIGSANYAQKFQGRVTITADESTSTAYMELSSLRSEDTAVYYCARDYGGNLDYWGQGTLVTVSS VL: DIVMTQSPLSLPVTPGEPASISCRSSQSLLHSNGYNYLDWYLQKPGQSPQLLIYAASSLQSGVPDRFSGSGSGTDFTLKISRVEAEDVGVYYCMQGAHWPPTFGQGTKVEIKR",337,0.097,290000
"Human ST2 IgG1 Antibody 94 (antibody, V domains shown, IgG1; also called ST2 Antibody 94) VH: QVQLVQSGAEVKKPGSSVKVSCKASGGILNSYAITWVRQAPGQGLEWMGRIIPILGIANYAQKFQGRVTITADESTSTAYMELSSLRSEDTAVYYCVENESGPLFDYWGQGTLVTVSS VL: EIVMTQSPATLSVSPGERATLSCRASQSVYSSYLAWYQQKPGQAPRLLIYGTSSRAAGIPARFSGSGSGTEFTLTISSLQSEDFAVYYCQQYYSTPYTFGQGTKVEIKR",483,0.062,130000
"Human ST2 IgG1 Antibody 91 (antibody, V domains shown, IgG1; also called ST2 Antibody 91) VH: EVQLLESGGGLVKPGGSLRLSCAASGFTFSSYWMSWVRQAPGKGLEWVSVIYSGGSTYYADSVKGRFTISRDDSKNTLYLQMNSLKTEDTAVYYCARGLGWFDPWGQGTLVTVSS VL: DIQMTQSPSSLSASVGDRVTITCQANQHIGNSLNWYQQKPGKAPKLLIFAASRLQSGVPSRFSGSGSGTDFTLTISSLQPEDFATYYCQQSYGTPLTFGGGTKVEIKR",256,0.041,160000
